Test system: MS2 coat protein
Experiment: apparent KD of MS2 coat protein; designed switch direction (-1 OFF switch, 1 ON switch): -1; higher = weaker reporter binding
In short: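 The buffer was Tris-HCl pH 7.5 with KCl, MgCl2, BSA, DTT, tRNA and Tween-20. In it, SNAP-549-labelled MS2 coat protein was titrated in doubling steps from 0.7 or 1.5 nM to 3 µM over chip-bound RNA switches transcribed by stalled E. coli RNA polymerase on Illumina chips. Apparent KD is the per-design median over clusters of curve fits to normalised fluorescence.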

[1] = input ligand: microRNA oligo, concentration not stated
[2] = Eterna round: R95, input ligand: FMN 200 uM
[3] = Eterna round: R95, input ligand: microRNA oligo, concentration not stated
[4] = Eterna round: R95, input ligand: none

Sequence	apparent KD of MS2 coat protein [1] [nM]	apparent KD of MS2 coat protein (input ligand: FMN 200 uM) [nM]	apparent KD of MS2 coat protein (input ligand: none) [nM]	apparent KD of MS2 coat protein [2] [nM]	apparent KD of MS2 coat protein [3] [nM]	apparent KD of MS2 coat protein [4] [nM]
UUAUUAUAUGUAGGAUAUGCAUAUUGUUGUUAUGCAGAAGGACAUGAGGAUCACCCAUGUAUAUUAUUGUUAUAUAUUAUAUAU [Title] (Eterna round: R96, puzzle: Exclusion NG 1)	20.1	–	–	–	–	–
ACCUCUACGCUUUCCAAGGGUAGACCUGGUGUUUGUCACACAUGAGGAUCACCCAUGUGCACUGUGCGAGUCGAACA [solution 38] (Eterna round: R96, puzzle: Sensor v2, turn-off variant 2)	40.2	49.5	50.6	–	–	–
GCACUGCGAGGAUAUACAUGAGGAUCACCCAUGUGUCGGCAGCCACGGUAGCACGAGUGUAGAAGGCGCGUUAG [EX3 #45] (Eterna round: R97, puzzle: Exclusion 3)	–	146	31.2	–	–	–
UUAUGAGAGCAGGAUAUCUUAUAUUUUUUUUAAAGAGAAGGGCUCACAUGAGGAUCACCCAUGUGGUCCUAGAU [LRO-Excl6-21-mod of 4.86 by jal] (Eterna round: R97, puzzle: Exclusion 6)	–	234	36.8	–	–	–
GGCAAUAACGAGGAUAUCCUAUGGGAAACCAUAGGAGAAGGUGUAACAUGAGGAUCACCCAUGUUCCUCAAGCC [Mat - Exclusion 6 - Eli Mod - D67] (puzzle: Exclusion 6)	–	–	–	43.3	34.7	39.8
GAGUGACAUGAGGAUCACCCAUGUGAGGAUAUCGGCCGGACCUUGUUAGCUUCCACCGCGAGAAGGCACAUCGG [Exclusion 1 V29] (puzzle: Exclusion 1)	–	–	–	–	20.3	–
GGACCAAGUCUAGGAUAUUUCAAUAGUUGUGUGAGAGAAGGAGAAUAACAUGAGGAUCACCCAUGUACCUCAAGUAGGCCGAUU [Eternabot solution 16] (Eterna round: R96, puzzle: Exclusion NG 1)	36.2	59.2	48	–	–	–
AAAAAGGCAGGAUAUACAUGAGGAUCACCCAUGUGAAAAAACAAAAAAAAAAAAAAAGGUAGAAGGGCCGAAAA [Science Triplets #3] (puzzle: Exclusion 3)	–	–	–	22.1	29	27.6
AAGAAACAUGAGGAUCACCCAUGUGAGGAUAUGAUUAAGAAAAGAAAAGAAAGAAGAGUCAGAAGGCACAAAGG [salish99-ex1_r3_063] (puzzle: Exclusion 1)	–	–	–	84.9	48.8	61.8
UUGUUAUAUGUAGGAUAUGCAUAUUAUUAUUAUGCAGAAGGACAUGAGGAUCACCCAUGUGUAUUAUUAUUAUAUAUUAUAUAU [Title] (Eterna round: R96, puzzle: Exclusion NG 1)	17.4	–	–	–	–	–
ACAUGAGGAUCACCCAUGUUUGGCUGGUCGUCUCCGGCUGUCGAGGAUAUAGUACGGUAUCCGCGCUAGAAGGUGAGGGCCGGC [Raxeorer] (Eterna round: R96, puzzle: Exclusion NG 3)	14.6	11.5	19.3	–	–	–
UAAAAGGCAGGAUAUGCAGAAAAGGAAACUUUUCAAGAAUGACAUGAGGAUCACCCAUGUAGAAGGGCCUUUUA [Alacar Attempt 3] (Eterna round: R97, puzzle: Exclusion 2)	–	15.5	16.2	–	–	–
CAUGAUUGGGAAGGAUAUUGACCUAGUUAGUGCCGAGAAGGUCCCUUUCACAUGAGGAUCACCCAUGUGAGUCUGGUGUUCGAG [Ex NG1 #97] (Eterna round: R96, puzzle: Exclusion NG 1)	23.7	43.1	30.5	–	–	–
AUAGGGUCAGGAUAUACGAGCAGGAGGAUGGAGCGGAGGCGGUAGAAGGGACAUGAGGAUCACCCAUGUAAGAA [JR_Exclu4_Sub052] (puzzle: Exclusion 4)	–	–	–	21.4	16.3	19.2

From the supplement of paper PMC9170038
